Values of other authors in paper PMC12055905.

Biological target: SARS-CoV-2 spike RBD (SARS-CoV-2) (UniProt P0DTC2)

For HBD-2 (from UniProt O15263), the Kd is listed as 0.3 µM.
